Test results taken from the DeepSol protein solubility set.

Assay: soluble on expression in E. coli; label from the status in PepcDB or PDB records

Row | Sequence | soluble on expression in E. coli
1 | MPTDIFSFKQFDIDQTGCAMRVGTDGVLLGAWAGEDAAGSIPQHCLDIGTGTGLIALMLAQRFPQARVQGIEIDPIAAECARANAAASPFSDRIVIASGDILDSSLESLIGNQRFDLIVSNPPFFKSSMHAPDRQRTMARHEETLPLEKLICRASELLSPQGRLALITPRDRLKDLRLYAATYRLVSSRLTEVRTLPHKEPKRLLSEWRPADTAIDRSPFTDTLIIHPATGYYSPEYVRLTEPFYTTSFRILAVG | soluble
2 | MQKALETKRLTLSYGETIIIDELNLEIPKGEITIFIGSNGCGKSTLLRSLARLLKPTTGDILLDNQAIQSMQTKQIARQMAILPQGPQAPEGLTVLQLVKQGRYPYQTWLKQWSEKDEEMVQNALAATGMTEFAERDVHALSGGQRQRAWIAMTLAQDTDIILLDEPTTYLDMTHQIEVLDLLFELNETEQRTIVMVLHDLNLACRYADNIVAIQDKQIYAQGKPEEVVDEKLVRDVFRMECQISTDPLFGTPLCIPHGKGRRVRKEVAHAMR | not soluble
3 | MGSDKIHHHHHHAAIPDTGNWISHHLLTSDGLTVLAAGPAFAPLKWNIGQNNMGGYKGRLLFIPYDAPSTVPMIPVKPTTNEDLITASGSFTFPSGGTYTQPIYLYSTKGKVGYKAEIQGETDGKSFKQTLEFFFPGNTPGMHAFSTLVKNTPGYFVFEDSDGQQFLMGKPGMYADVSPSFDGGKLAADQRGTAYTATCDANESAVVLGTPIDMEVIAGLKPAPSPGG | not soluble
4 | MGSDKIHHHHHHVWNDRVELSGKCEYALLALIELARGHSNGEPQQIKQLADRQNIPDRYLEQLLATLRRGGIVRSVRGARGGYLLAREPWQISMQDVVHCIDGTEMQRTEAIDQQSVTIERQILVDINVELCKAVEDVLAAYSLQDLLEIRENRASTDLMYYI | not soluble
5 | MGSDKIHHHHHHEIFSEITTDNYYQNSNNIYAALVNNYAKAFSTGWSDARYFLQEVTADQLMIPTRGKHGYNGGEYVRLHEHKWTVEENFVYNGWAAPFQGIALCNNTLSDFENLDFSTFKLTEETKNEYIAELRALRVWNYMFLIDFFRHVPIVTDIEEVKAQSTPLEVFNFMESELLAILPDLPKNRGVSRFDQAGVASILVRLYLNAEKWIGISKYDECEQMAQAILDGKYGEYSIDPDYRGPFRSGINGYRSKENIMEFAIKKNYFEASWLYNMWMHYQDRYSLDNDWQGWNGGNLAPSRDLYGNLYQDKLGMPFEKFPDGDIRKKAFRVISNDGDYEGFFLMGTQYKFDYEKGYGFTDEVITGTEEYNGKPLVYVDQVGRFSEGETGLAKGSHVIYGEENTGYRLIKFPWLPQSKDLFQMNSIPEIRLAEIYYSLAECKYRSGDKIGAARLLDVVRKRYYKAEDWSKFSYESNISKLTDDEFVDELGREFIGERHRRIDLIRWNRFSEGAWWDKTPDATNQDVFPIPYRALNANPLLKQTTAGF | not soluble
6 | SLLDVAVSPDDRFILTADRDEKIRVSWAAAPHSIESFCLGHTEFVSRISVVPTQPGLLLSSSGDGTLRLWEYRSGRQLHCCHLASLQELVDPQAPQKFAASRIAFWCQENCVALLCDGTSVVYIFQLDARRQQLVYRQQLAFQHQVWDVAFEETQGLWVLQDCQEAPLVLYRPVGDQWQSVPESTVLKKVSGVLRGNWAMLEGSAGADASFSSLYKATFDNVTSYLKKKEERLQQQLEKKQRRRSPPPGPDGHAKKMRPGEATLSC | soluble
7 | MGSDKIHHHHHHMANKNLYGGNPERGWCMVLPGFFSEDIRVDNHAANGRSSKSFISEGRWAKVISQVKKGDYVFIQFGHNDEKADSARHTDPGTTFDDNLRRFVNETRVKGGIPVLFNSIVRRNFVQPEDASIATDARRAPGEQELPKEVNVLYDTHGAYLDSPRNVAKEMGVAFIDMNKITHDLVQGLGPAESKKLFMFVEPEKVPAFPKGREDNTHLNVYGARTIAGLTVDAIAKEIPELAKYVRHYDYVVAQDGTGDFFTVQEAINAVPDFRKNVRTTILVRKGTYKEKIIIPESKINISLIGEDGVVLTNDDFANKKNVFGENMGTSGSSSCYIYAPDFYAENITFENSAGPVGQAVACFVSADRAFFKNCRFLGYQDTLYTYGKHSRQYYEDCYIEGTVDFIFGWSVAVFNRCHIHSKRDGYVTAPSTDQGKKYGYVFYDCRLTADPDVAKVYLSRPWRPYAQAVFIRCELGKHILPEGWHNWGKKEAEKTVFYAEYDSHGEGANPKARAAFSRQLKNLKGYEMETVLAGEDGWNPLKNDSVK | not soluble
8 | AHHHHHHGSLSERELERYDRQIMIFGIEGQEKLKKANVAVVGVGGLGSPVAYYLAAAGVGTILLIDEQTPELSNLNRQILHWEEDIEKNPKPISAKWKLERFNSNIKIETFVGRLSEENIDEVLSGVDVIVDCLDNFETRYLLDDFAHKKGIPLVHGAVEGFYGQVTTIIPGKTKRLREIFPKVKKKGKFPIVGATAGVIGTIQASEVIKLITGYGEPLANKLLIIDLANNTYEIIEI | soluble
9 | GPGSMGQVGGTATSGRGLTALQVAAALRVTAAARLKQAEAAVSSSQAMHSAHCSIAEQSKAIKPEDCSAVQRLTVPSTDHKGKHVEVRVTEYAPDVFSFLRQLKGVTDPQFADEWSLPENRLKMEMGEGRSQALFLKSKTMLLMCKTISVEEVHALLHVLRAYTLHITAHPSSLLMRFYMLLKVSVRSEEGYILCFNDVFGTASVLHEKWDIKGRVPKNGKHLHYPHLIGSGYEPDPHATKPPPKRHVLANPAIDASQQHPGRESAVVVRGTKDAQGLPTLHDKDLTRLFWVPRTARKRLVEELLRDYDFLKNAGMMDYSLLIGVAYQDDKTRPSDKHCGIESTNVTSSSAVAPASTSAEARPASLAQDSHPSGTRTMLTTVPEFANGVRSFDGQEMYYIGVIDVLTTYTLKKKSANFFKSLLWKQKTLSTIPPDRYAQRIASFTELIFPDVKEEANGG | not soluble
10 | VFGYVTEDGDTALHLAVIHQHEPFLDFLLGFSAGHEYLDLQNDLGQTALHLAAILGEASTVEKLYAAGAGVLVAERGGHTALHLACRVRAHTCACVLLQPRPSHPRDASDTYLTQSQDCTPDTSHAPAAVDSQPNPENEEEPRDEDWRLQLEAENYDGHTPLHVAVIHKDAEMVRLLRDAGADLNKPEPTCGRTPLHLAVEAQAASVLELLLKAGADPTARMYGGRTPLGSALLRPNPILARLLRAHGAPEPEDGGDKLSPCEEEGEDEDSDNRDEGDEYDD | soluble
11 | MLLFSAFLIFGFSIGFSEEASCRHPHERFIGTRCYAFVSKKHTYNTAKEYCDSHGYSLATVDNAITSNFLASSAATEFGSNNGQFWIGLSRKKDYELFNWDDGTIVSYTNFEAGFPNKQDFVAENVRNGRWQTLAEHKELEFVCSYDPTATTSAAPTTIPPTTTTTRAPTTTTVRKTTQTTATTMTTPKPTTTVSTTTTTTVPPTTTPKACPQGFVLFEPTQKCYIVLVYGNDSDYPDVPDDAPFLTRENQRCAKYGATVATIHSSDLNDLFRSLIYERFNDTRYATIGLRNIDMKTISGKWQWFDGTSPDYLNFGNMFPKTGDYIAQTSSQGFWVSYTHTAPNEGVVCSKNRKSERGFTGLVDIDQAAIKKLELQTYLK | not soluble
12 | MRVARLFRFPVKGFPAEEIPEADVRTGRGIRGDRVAAFTNGSLDIPDDSWHRYSAFTVLKNDTDLQKWQVELDLAEAADSSQPAVADPSATVTLTSPQNETTTFRTDDRDTRATSADFLSARIPPQGDFPRALSVADQGMFDSQAAGVSIINPATVAAISQTADGQAALAPGETELDPLRFRGNVLVDGLAPFEEFALIGKIVRLGGVRLAITQAIERCPATTVNPTTTAVDVNVPRVLASACGHLHCGVYGRILESGLVSTGDEIEIEGDAPRELVKTARTPRFMTVLGSQQICNDIVEVSLRDDQGWIREFDEPGTNLRVHLDLGEPFWRTYTITDVSDDIVSIAVRTQGKGSRAVAELAAGQSVLASGPHGTMTANRVFGGTTALVTAGIGITPSLGLMRGAELSGTEKIKLFHVDRDHRTACLWDRLQKRAHSRQIPVETHHRDTASQGRPGHADLVDWLAGCDNVMVCGPADFTRAVLDASAEAGVPAVHQEIFASPNTGMSEAIAQCSPAEVTLENSGTSFLWEPQQGTLLEALEARGLRADNSCRGGSCGTCAVSLAAGSVIYPVEPAARIAADEVLVCSAVPSGPISLGILEHHHHHH | not soluble
13 | MSLKPRVVDFDETWNKLLTTIKAVVMLEYVERATWNDRFSDIYALCVAYPEPLGERLYAETKIFLESHVRHLYRYWEEYSKGADYMDCLYRYLNTQYIKKNKLTEADIQYGYGGVDMNEPLMEIGELALDMWRKLMVEPLQNILIRMLLREIKNDRGGEDPNQKVIHGVINSFVHVEQYKKKFPLKFYQGIFVSPFLTETGEYYKQEASNLLQESNCSQYMEKVLGRLKDEEIRCRKYLHPSSYTKVIHECQQRMVADHLQFLHSECHSIIQQERKNDMANMYVLLRAVSSGLPHMIEELQKHIHDEGLRATSNLTQEHMPTLFVESVLEVHGKFVQLINTVLNGDQHFMSALDKALTSVVNYREPKSVCKAPELLAKYCDNLLKKSAKGMTENEVEDKLTSFITVFKYIDDKDVFQKFYARMLAKRLIHGLSMSMDSEEAMINKLKQACGYEFTSKLHRMYTDMSVSADLNNKFNNFIRNQDTVIDLGISFQIYVLQAGAWPLTQAPSSTFAIPQELEKSVQMFELFYSQHFSGRKLTWLHYLCTGEVKMNYLGKPYVAMVTTYQMAVLLAFNNSETVSYKELQDSTQMNEKELTKTIKSLLDVKMINHDSEKEDIDAESSFSLNMSFSSKRTKFKITTSMQKDTPQELEQTRSAVDEDRKMYLQAAIVRIMKARKVLRHNALIQEVISQSRARFNPSISMIKKCIEVLIDKQYIERSQASADEYSYVA | soluble
14 | MGHHHHHHSHDSLAEFKVPLILFSGGEPLLREDIFEIAGYAKKKGIKSVLSTNGTLIDRDMAENLKVFEYVGVSLDGVASTNDRFRGVEGAYERAFKGLLMASEVVLSGIRFTVSKYNYKDVFSLIELAREHEIPRFCLYHLVPSGRAEFKDDITNEQRRALLDNLLREAEKEGMEIMTVDNPADGIYTYLKLKEADSEKAEMALEFLKFRGGDSSGIRLANIDHQGNVHPNQFW | soluble
15 | AHHHHHHGSKVYAPATIANFGPGFDVFGLAIETPRDTVIAKESDDFRIEVEGYKVPENDENVALVAAKALFKLVGEEGGIYLKLKKGIRPKSGLGSSGASSIAGAVAAARILGVEDDEIIIRAALEGERKASGSPHGDNVVPSYYGNFTIVESLNPLRVHNIEVDFKVVVILPSVEVPTSEARKVLPKKVPLKDAVKNIALASSLVLALKEGNLEEVGRLLEDHLALPYRLSLVPWFPKVKEAAKEAGAYGVMISGSGPAVFALGENLKEIGKAMKEAFESFGIEAEYWVTKVGRGAKWC | not soluble
16 | MHSLDSYFQRTTAPKSAAQERREEFHEKVMRSADYIADKFVETVRPLVDEVADKLQSEMPEDMEGTAKRRLICELSRRFGVSISAFK | not soluble
17 | MNPIVINRLQRKLGYTFNHQELLQQALTHRSASSKHNERLEFLGDSILSYVIANALYHRFPRVDEGDMSRMRATLVRGNTLAELAREFELGECLRLGPGELKSGGFRRESILADTVEALIGGVFLDSDIQTVEKLILNWYQTRLDEISPGDKQKDPKTRLQEYLQGRHLPLPTYLVVQVRGEAHDQEFTIHCQVSGLSEPVVGTGSSRRKAEQAAAEQALKKLELE | soluble
18 | IAALSRDITPQQDGSVIVDASITIRHLNRMMGWSLPLIGPRTLSGLIIEHLGYIPPPDSCLVIDHYHIEILRVSDNMIRGVKMIKTN | not soluble
19 | ALEEVVRYLGPHNEIPLTLTRDSETGHFLLKHFLPILQQYHDTGNINETNPDSFPTDEERNKLLAHYGIAVNTDDRGELWIELEKCLQLLNMLNLFGLFQDAFEFEEPETDQDEEDPSHSKLPEN | soluble
